In publication PMC10397247:
One block for each binder: values may come before it.

Legend:
4H2458-AA = target: T1, 4H2458-AA; test: two-hybrid library CCmax;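 further: natural log of median RNA to DNA barcode read ratio; higher means stronger binding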
T1 chain: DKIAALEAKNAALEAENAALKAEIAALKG

4H3330-AA = target: T2, 4H3330-AA; test: two-hybrid library CCmax; settings: mean of both orientations;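 further: natural log of median RNA to DNA barcode read ratio; higher means stronger binding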
T2 chain: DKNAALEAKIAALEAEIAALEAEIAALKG

4H716-AA = target: T3, 4H716-AA; test: two-hybrid library CCmax; settings: mean of both orientations;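 further: natural log of median RNA to DNA barcode read ratio; higher means stronger binding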
T3 chain: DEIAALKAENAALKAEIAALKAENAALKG

4H733-AA = target: T4, 4H733-AA; test: two-hybrid library CCmax; settings: mean of both orientations;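 further: natural log of median RNA to DNA barcode read ratio; higher means stronger binding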
T4 chain: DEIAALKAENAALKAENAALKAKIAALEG

4H807-AA = target: T5, 4H807-AA; test: two-hybrid library CCmax; settings: mean of both orientations
T5 chain: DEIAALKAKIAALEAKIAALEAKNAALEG

APC1015-AA = target: T6, APC1015-AA; test: two-hybrid library CCmax; settings: mean of both orientations
T6 chain: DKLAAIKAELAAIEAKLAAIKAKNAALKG

APC1434-AA = target: T7, APC1434-AA; test: two-hybrid library CCmax; settings: mean of both orientations
T7 chain: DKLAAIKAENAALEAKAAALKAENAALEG

APC2237-AA = target: T8, APC2237-AA; test: two-hybrid library CCmax; settings: mean of both orientations
T8 chain: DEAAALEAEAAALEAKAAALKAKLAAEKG

APC232-AA = target: T9, APC232-AA; test: two-hybrid library CCmax; settings: mean of both orientations
T9 chain: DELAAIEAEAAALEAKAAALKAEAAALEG

APC2405-AA = target: T10, APC2405-AA; test: two-hybrid library CCmax; settings: mean of both orientations
T10 chain: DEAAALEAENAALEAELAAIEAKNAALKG

APC3645-AA = target: T11, APC3645-AA; test: two-hybrid library CCmax; settings: mean of both orientations
T11 chain: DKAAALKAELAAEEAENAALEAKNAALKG

APC4011-AA = target: T12, APC4011-AA; test: two-hybrid library CCmax; settings: mean of both orientations
T12 chain: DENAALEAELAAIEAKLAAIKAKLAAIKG

APC4264-AA = target: T13, APC4264-AA; test: two-hybrid library CCmax; settings: mean of both orientations
T13 chain: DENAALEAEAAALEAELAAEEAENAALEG

APC4436-AA = target: T14, APC4436-AA; test: two-hybrid library CCmax; settings: mean of both orientations
T14 chain: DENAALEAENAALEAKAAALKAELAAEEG

APC5383-AA = target: T15, APC5383-AA; test: two-hybrid library CCmax; settings: mean of both orientations
T15 chain: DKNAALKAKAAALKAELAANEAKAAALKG

APC6108-AA = target: T16, APC6108-AA; test: two-hybrid library CCmax; settings: mean of both orientations
T16 chain: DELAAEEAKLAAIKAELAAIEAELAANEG

APC7099-AA = target: T17, APC7099-AA; test: two-hybrid library CCmax; settings: mean of both orientations
T17 chain: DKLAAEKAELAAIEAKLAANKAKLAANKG

APC8191-AA = target: T18, APC8191-AA; test: two-hybrid library CCmax; settings: mean of both orientations
T18 chain: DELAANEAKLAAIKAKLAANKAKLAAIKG

APC8910-AA = target: T19, APC8910-AA; test: two-hybrid library CCmax; settings: mean of both orientations
T19 chain: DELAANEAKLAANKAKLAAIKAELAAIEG

APC9096-AA = target: T20, APC9096-AA; test: two-hybrid library CCmax; settings: mean of both orientations
T20 chain: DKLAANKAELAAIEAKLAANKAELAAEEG

APC9319-AA = target: T21, APC9319-AA; test: two-hybrid library CCmax; settings: mean of both orientations
T21 chain: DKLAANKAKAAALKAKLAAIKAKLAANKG

O13-bP = target: T22, O13-bP; test: two-hybrid library CCNG1
T22 chain: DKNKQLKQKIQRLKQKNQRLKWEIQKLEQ

O14-bP = target: T23, O14-bP; test: two-hybrid library CCNG1
T23 chain: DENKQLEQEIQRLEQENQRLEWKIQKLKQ

O15-bP = target: T24, O15-bP; test: two-hybrid library CCNG1
T24 chain: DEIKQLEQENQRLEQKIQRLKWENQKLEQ

O16-bP = target: T25, O16-bP; test: two-hybrid library CCNG1
T25 chain: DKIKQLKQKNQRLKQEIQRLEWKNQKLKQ

O2-bP = target: T26, O2-bP; test: two-hybrid library CCNG1
T26 chain: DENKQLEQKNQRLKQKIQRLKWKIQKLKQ

O3-bP = target: T27, O3-bP; test: two-hybrid library CCNG1
T27 chain: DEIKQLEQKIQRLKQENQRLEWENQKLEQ

O4-bP = target: T28, O4-bP; test: two-hybrid library CCNG1
T28 chain: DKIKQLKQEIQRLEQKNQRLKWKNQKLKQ

O5-bP = target: T29, O5-bP; test: two-hybrid library CCNG1
T29 chain: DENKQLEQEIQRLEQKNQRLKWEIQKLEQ

O6-bP = target: T30, O6-bP; test: two-hybrid library CCNG1
T30 chain: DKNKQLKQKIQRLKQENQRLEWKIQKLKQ

O7-bP = target: T31, O7-bP; test: two-hybrid library CCNG1
T31 chain: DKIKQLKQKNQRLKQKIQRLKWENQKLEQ

O8-bP = target: T32, O8-bP; test: two-hybrid library CCNG1
T32 chain: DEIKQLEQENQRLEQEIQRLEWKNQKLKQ

O9-bP = target: T33, O9-bP; test: two-hybrid library CCNG1
T33 chain: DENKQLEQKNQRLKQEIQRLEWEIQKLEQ

interaction score (4H2458-AA): 2.24 | interaction score (4H3330-AA): -1.38 | interaction score (4H716-AA): -0.991 | interaction score (4H733-AA): -1.61 | interaction score (4H807-AA): -1.17 | interaction score (APC1015-AA): -1.95 | interaction score (APC1434-AA): -1.22 | interaction score (APC2237-AA): -1.44 | interaction score (APC232-AA): -1.85 | interaction score (APC2405-AA): -1.59 | interaction score (APC3645-AA): -1.47 | interaction score (APC4011-AA): -0.914 | interaction score (APC4264-AA): -1.79 | interaction score (APC4436-AA): -1.67 | interaction score (APC5383-AA): -1.7 | interaction score (APC6108-AA): -1.71 | interaction score (APC7099-AA): -1.31 | interaction score (APC8191-AA): -2.11 | interaction score (APC8910-AA): -1.49 | interaction score (APC9096-AA): -1.34 | interaction score (APC9319-AA): -2.07
Binder: DKIAALEAKNAALEAENAALKAEIAALKG [4H2458-AA]

interaction score (O13-bP): -2.25 | interaction score (O14-bP): 1.35 | interaction score (O15-bP): -0.599 | interaction score (O16-bP): -1.17 | interaction score (O2-bP): -1.3 | interaction score (O3-bP): -1.76 | interaction score (O4-bP): -0.851 | interaction score (O5-bP): -0.814 | interaction score (O6-bP): -0.094 | interaction score (O7-bP): -1.19 | interaction score (O8-bP): -0.609 | interaction score (O9-bP): -1.05
Binder: DKNKQLKQKIQRLKQKNQRLKWEIQKLEQ [O13-bP]

interaction score (O14-bP): -1.46 | interaction score (O15-bP): -0.0315 | interaction score (O16-bP): 1.73 | interaction score (O2-bP): -0.77 | interaction score (O3-bP): -0.787 | interaction score (O4-bP): -1.04 | interaction score (O5-bP): 1.11 | interaction score (O6-bP): 1.82 | interaction score (O7-bP): 0.0513 | interaction score (O8-bP): -2.05 | interaction score (O9-bP): -0.215
Binder: DENKQLEQEIQRLEQENQRLEWKIQKLKQ [O14-bP]
